Experimental data from patent publication US20090149343.

Target: 48 discrete histone H3 peptides containing a wide range of histone modifications at defined residues (micro-array bound)

B1: recombinant human histone methyl-transferase SET 7/9 (protein)
chain: MDSDDEMVEEAVEGHLDDDGLPHGFCTVTYSSTDRFEGNFVHGEKNGRGKFFFFDGSTLEGYYVDDALQGQGVYTYEDGGVLQGTYVDGELNGPAQEYDTDGRLIFKGQYKDNIRHGVCWIYYPDGGSLVGEVNEDGEMTGEKIAYVYPDERTALYGKFIDGEMIEGKLATLMSTEEGRPHFELMPGNSVYHFDKSTSSCISTNALLPDPYESERVYVAESLISSAGEGLFSKVAVGPNTVMSFYNGVRITHQEVDSRDWALNGNTLSLDEETVIDVPEPYNHVSKYCASLGHKANHSFTPNCIYDMFVHPRFGPIKCIRTLRAVEADEELTVAYGYDHSPPGKSGPEAPEWYQVELKAFQATQQK
SET 7/9 dependent methylation of micro-array bound histone peptides, detected by anti-H3K4me1 antibody: also detects a large number of newly created additional sites containing this epitope after HMTase incubation
